# Biological target: serpin enzyme complex receptor (secR) on IB3 cells
# Assay: cell-based or functional assay
substance,measurement,value
VP1 serpin virus (AAV2 capsid with serpin ligand FVFLI substituted for the capsid sequence immediately after aa 34) (from UniProt P03135 1-34; P03135 40-735; P03135 138-735; P03135 203-735),infectivity on IB3 cells (hAAT ELISA) against wt capsid,62 fold

# From US20060292117A1
